These results are taken from publication PMC9504884, “Functional Interactions of Kluyveromyces lactis Telomerase Reverse Transcriptase with the Three-Way Junction and the Template Domains of Telomerase RNA”.

Holding throughout (assay): EMSA; 1 nM RNA, tRNA competitor; 25 mM Tris-HCl pH 7.5, 50 mM KCl, 1 mM MgCl2, 1 mM DTT, 10% glycerol, 0.1% Triton, 0.5 mg/mL BSA, 1.7 ng/uL yeast tRNA, 1 nM RNA probe; 15 min on ice then 10 min room temperature; gel at 6 C
In general terms: Mobility shift assays separate free from complexed probe on a gel.

One data set concerns the target T1, klTRBD klEst2 171-422 (Kluyveromyces lactis, UniProt Q6CSS0 171-422).
T1 sequence: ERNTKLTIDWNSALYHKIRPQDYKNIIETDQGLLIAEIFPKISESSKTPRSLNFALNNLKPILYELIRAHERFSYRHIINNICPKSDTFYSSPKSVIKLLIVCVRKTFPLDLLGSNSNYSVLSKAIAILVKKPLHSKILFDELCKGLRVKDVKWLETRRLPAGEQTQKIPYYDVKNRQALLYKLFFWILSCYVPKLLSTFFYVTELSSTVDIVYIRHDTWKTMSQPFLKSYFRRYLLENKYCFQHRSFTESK
The conditions noted are these: protein: recombinant; tags: N-terminal His-SUMO, TEV-cleaved; label: 5'-32P when probe; three-way junction.

In data set [1] the target is T2, klEst2 full-length (TERT) (Kluyveromyces lactis, UniProt Q6CSS0 1-861).
T2 sequence: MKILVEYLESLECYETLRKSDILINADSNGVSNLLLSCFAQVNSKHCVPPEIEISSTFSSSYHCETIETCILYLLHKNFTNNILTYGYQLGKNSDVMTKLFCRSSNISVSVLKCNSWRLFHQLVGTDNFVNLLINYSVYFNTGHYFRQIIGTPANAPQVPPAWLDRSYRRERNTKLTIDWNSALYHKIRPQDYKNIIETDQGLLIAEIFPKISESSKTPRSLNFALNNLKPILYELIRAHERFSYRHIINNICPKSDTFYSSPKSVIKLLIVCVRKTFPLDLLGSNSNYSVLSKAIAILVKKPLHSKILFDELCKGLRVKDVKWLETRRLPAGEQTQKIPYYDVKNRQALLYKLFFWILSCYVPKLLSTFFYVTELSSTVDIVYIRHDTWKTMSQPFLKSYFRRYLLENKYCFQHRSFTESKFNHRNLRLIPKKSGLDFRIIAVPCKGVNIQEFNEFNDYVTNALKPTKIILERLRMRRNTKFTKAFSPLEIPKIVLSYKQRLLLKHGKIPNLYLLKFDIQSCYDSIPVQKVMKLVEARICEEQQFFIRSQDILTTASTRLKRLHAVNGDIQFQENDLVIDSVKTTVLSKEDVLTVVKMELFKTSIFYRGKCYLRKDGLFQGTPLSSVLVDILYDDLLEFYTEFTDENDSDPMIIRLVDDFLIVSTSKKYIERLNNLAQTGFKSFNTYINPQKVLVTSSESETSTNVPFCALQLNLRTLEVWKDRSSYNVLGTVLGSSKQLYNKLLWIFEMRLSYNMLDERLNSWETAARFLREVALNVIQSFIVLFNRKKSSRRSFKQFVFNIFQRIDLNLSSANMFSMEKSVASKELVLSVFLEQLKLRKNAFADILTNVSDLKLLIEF
The note with it: protein: recombinant; tags: expressed in E. coli; His-SUMO tag described for the TRBD constructs, tag of full-length not clearly stated; label: 5'-32P when probe; three-way junction.

Another data set concerns the target T3, klTRBD klEst2 171-404 (Kluyveromyces lactis, UniProt Q6CSS0 171-404).
T3 sequence: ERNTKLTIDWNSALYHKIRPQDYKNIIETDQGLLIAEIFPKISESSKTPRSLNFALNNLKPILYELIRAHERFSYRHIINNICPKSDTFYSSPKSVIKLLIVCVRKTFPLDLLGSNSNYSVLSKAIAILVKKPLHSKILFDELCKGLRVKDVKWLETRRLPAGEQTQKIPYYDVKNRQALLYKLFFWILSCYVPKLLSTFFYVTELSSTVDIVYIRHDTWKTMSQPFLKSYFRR
The conditions noted are these: protein: recombinant; tags: N-terminal His-SUMO, TEV-cleaved; label: 5'-32P when probe; three-way junction.

B1: minTWJ (structured_RNA)
RNA: GGGUUGUCCUAUGGUGGAUCUUGAAAAGACCCUCGGAAGACAGGGCCACAUCGACGAUCAAUAUUUUGCCGUGAGGCUUAUAUGUCACCAUGGCAUGCAGCCC
Take B1: the binding result in the data set with klTRBD klEst2 171-422 is “no binding”; in data set [1] it was “binds”; with klTRBD klEst2 171-404, “no binding”.
